From patent US20170368136 come the findings set out here.

One series concerns T1, CN19 S12A.
T1 sequence: KRPPKLGQIGRAKRVVIED

The next series relates to T2, CN19.
T2 sequence: KRPPKLGQIGRSKRVVIED

Chain of CaMKII (chain): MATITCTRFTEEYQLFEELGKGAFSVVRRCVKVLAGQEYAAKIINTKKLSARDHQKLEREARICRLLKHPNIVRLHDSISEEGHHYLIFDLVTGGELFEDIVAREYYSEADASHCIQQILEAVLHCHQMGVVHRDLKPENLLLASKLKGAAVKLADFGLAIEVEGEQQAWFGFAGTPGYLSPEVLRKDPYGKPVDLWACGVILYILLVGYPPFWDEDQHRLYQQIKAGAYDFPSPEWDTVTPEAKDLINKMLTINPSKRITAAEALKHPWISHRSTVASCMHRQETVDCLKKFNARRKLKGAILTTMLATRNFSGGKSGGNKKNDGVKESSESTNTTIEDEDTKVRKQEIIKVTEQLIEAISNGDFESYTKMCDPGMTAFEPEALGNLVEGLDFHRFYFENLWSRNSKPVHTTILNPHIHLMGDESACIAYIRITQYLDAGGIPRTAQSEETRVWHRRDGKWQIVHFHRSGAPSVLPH

As to CaMKII, the “AC2 substrate phosphorylation by CaMKII” value in the series with CN21b was “The other 21mer peptides, CN21b and CN21c, had minimal or no effect”. In addition, in the series on CN21c, the “AC2 substrate phosphorylation by CaMKII” value was “The other 21mer peptides, CN21b and CN21c, had minimal or no effect”; the “MAP2 phosphorylation by CaMKII (Western), 5 µM peptide” value was “Only CN21c failed to block MAP2 phosphorylation”. The “CaMKII substrate- and auto-phosphorylation (Western)” value in the series on CaM-KIIN was “CaM-KIIN and CN21 block substrate- and T305 but not T286 auto-phosphorylation”.
As to PKC, the “phosphate incorporation by PKC” value with CN19 S12A is “CN19 but not its S12A mutant was phosphorylated by PKC”. Moreover, the “phosphorylation rate by PKC relative to a MARCKS peptide substrate” value with CN19 is reported as “with a phosphorylation rate of >50% compared to a peptide derived from a major PKC substrate protein”.
